Assay results as given in patent US7125847.
Several values for one entry are separate records, joined by “and”; a condition that tells them apart may be missing. Equal entries are not always repeated. Where two headings read alike, the source gives them in different places. Where no end group is shown, it is not given here.

What was measured:
[1] = biological target: stretch-activated channels (SACs) of activated adult rat astrocytes (rat)
[2] = biological target: stretch-activated channels (SACs) of activated adult rat astrocytes (rat); remark: listed apart in the source
[3] = biological target: stretch-activated channels (SACs) of activated adult rat astrocytes (rat); assay: cell-based or functional assay

B1: GsMTx-4 purified from Grammostola spatulata venom (peptide)
peptide: GCLEFWWKCNPNDDKCCRPKLKCSKLFKLCNFSSG-NH2
modifications: disulfide (positions not given here); not fully specified (bridges); also: 3 disulfides (ICK motif), pairing not given here
- kon [1]: 340000 M⁻¹ s⁻¹
- Kd [2]: 631 nM and 415 nM
- koff [2]: 0.21 s⁻¹
- kon [2]: 330000 M⁻¹ s⁻¹
- average SAC current after GsMTx-4 washout [3]: 2.28 pA
- average SAC current during GsMTx-4 application [3]: 0.17 pA
- mean SAC current before GsMTx-4 application [3]: 2.04 pA
- ratio of blocked to unblocked current I/I0 [3]: 0.083
- time constant of recovery of SAC current on washout [3]: 4.7 s
